# Data: patent publication US20220204611A1 (Amgen, published 2022)
# T1: human TREM2 on cells (human, UniProt Q9NZC2 19-230)
# T1 sequence: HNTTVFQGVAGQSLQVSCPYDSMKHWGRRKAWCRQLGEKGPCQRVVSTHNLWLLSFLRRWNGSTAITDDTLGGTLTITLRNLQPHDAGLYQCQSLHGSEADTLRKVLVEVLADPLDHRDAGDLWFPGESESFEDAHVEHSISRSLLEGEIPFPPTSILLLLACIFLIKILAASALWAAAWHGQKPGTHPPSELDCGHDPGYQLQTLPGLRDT
# T2: recombinant soluble human TREM2 protein (human TREM2 ECD-FlagHis) (human, UniProt Q9NZC2 19-174)
# T2 sequence: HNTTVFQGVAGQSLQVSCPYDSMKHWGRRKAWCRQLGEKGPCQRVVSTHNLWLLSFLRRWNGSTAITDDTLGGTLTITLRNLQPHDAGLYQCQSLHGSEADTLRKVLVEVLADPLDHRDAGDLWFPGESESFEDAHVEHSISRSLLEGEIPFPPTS
# T3: recombinant soluble cynomolgus TREM2 protein (cynomolgus TREM2 extracellular domain coupled to a Flag/His tag) (cynomolgus, UniProt A0A2K5UY34 49-204)
# T3 construct: extracellular domain; also called Cyno TREM2
# T3 sequence: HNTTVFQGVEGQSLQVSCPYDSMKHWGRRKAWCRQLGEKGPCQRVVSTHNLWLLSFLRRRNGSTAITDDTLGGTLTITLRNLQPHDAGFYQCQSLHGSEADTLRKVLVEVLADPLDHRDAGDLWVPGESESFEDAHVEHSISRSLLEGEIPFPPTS
# B1: 5E3 (antibody, human IgG2, V domains shown)
# VH: QVQLVQSGAEVKKPGASVKVSCKASGYTFTGYYIHWVRQAPGLGLEWMGWINPYSGGTTSAQKFQGRVTMTRDTSISSAYMELSRLRSDDTAVYYCARDGGYLALYGTDVWGQGTTVTVSS
# VL: DIQMTQSPSSLSASVGDRVTITCRASQGISNYLAWFQQKPGKAPKSLIYAASSLQSGVPSKFSGSGSGTDFTLTISSLQPEDFATYYCQQYSTYPFTFGPGTKVDIK
# notes: human IgG2 from hybridoma
# B2: 6E7 (antibody, human IgG2, V domains shown)
# VH: EVQLVQSGAEVKKPGESLKISCKGSGYSFTSYWIAWVRQMPGKGLEWMGIIYPGDSDTRYSPSFQGQVTISADKSISTAYLQWSSLKASDTAMYFCARQRTFYYDSSDYFDYWGQGTLVTVSS
# VL: DIQMTQSPSSVSASVGDRVTITCRASQGISSWLAWYQQKPGKAPKLLIYAASSLQNGVPSRFSGSGSGTDFTLTISSLQPEDFATYFCQQADSFPRTFGQGTKLEIK
# notes: human IgG2 from hybridoma
# B3: 10E3 (antibody, human IgG2, V domains shown)
# VH: EVQLVQSGAEVKKPGESLMISCKGSGYSFTNYWIGWVRQMPGKGLEWMGIIYPGDSDTRYSPSFQGQVTISADKSISTAYLQWSSLKASDTAMYFCARRRQGIWGDALDIWGQGTLVTVSS
# VL: EIVMTQSPATLSVSPGERATLSCRASQSVSSNLAWFQQKPGQAPRLLIYGASTRATGIPARFSVSGSGTEFTLTISSLQSEDFAFYYCLQDNNWPPTFGPGTKVDIK
# notes: human IgG2 from hybridoma
# B4: 13E7 (antibody, human IgG2, V domains shown)
# VH: EVQLVQSGAEVKKPGESLMISCKGSGYSFTSYWIGWVRQMPGKGLEWMGIIYPGDSDTRYSPSFQGQVTISADKSISTAYLQWSSLKASDTAMYFCARRRQGIWGDALDFWGQGTLVTVSS
# VL: EIVMTQSPATLSVSPGERATLSCRASQSVSSNLAWFQQKPGQAPRLLIYGASTRATGIPARFSVSGSGTEFTLTISSLQSEDFAVYYCLQDNNWPPTFGPGTKVDIK
# notes: human IgG2 from hybridoma
# Experiments:
# human TREM2 on cells = target: T1, human TREM2 on cells; test: cell-based or functional assay
# [1] = target: T2, recombinant soluble human TREM2 protein …; test: Octet BLI binning; competitor: load Ab 5E3
# Description: (§1) Each of sixteen different anti-TREM2 antibodies produced from hybridomas were quantitated and loaded onto one of the anti-human Fc sensors at 5 μg/mL for 2 minutes (“Load Antibody”). The sensor was then blocked with 100 μg/mL of an irrelevant human IgG2 antibody for 5 minutes. […] Next, each of the sixteen different anti-TREM2 antibodies (“Sandwich Antibody”) was added to the sensor at 5 μg/mL and allowed to bind for 5 minutes. All assay buffers contained 10 mM Tris (pH 7.6), 0.1% Triton X-100, 150 mM NaCl, 1 mM CaCl₂, and 1 mg/mL BSA. The assay was conducted at 25° C. Experimental kinetic results were fit to a 1:1 binding model.
# (§2) However, if addition of the sandwich antibody produces a binding event, then the sandwich antibody binds to a different epitope on human TREM2 than the load antibody and the two antibodies are categorized into different epitope bins.
# [2] = target: T2, recombinant soluble human TREM2 protein …; test: Octet BLI binning; competitor: load Ab 6E7
# Description: as §1, §2
# [3] = target: T2, recombinant soluble human TREM2 protein …; test: Octet BLI binning; competitor: load Ab 10E3
# Summary of the method: (§3)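 Sixteen hybridoma-derived anti-TREM2 antibodies were cross-tested pairwise as load and sandwich antibodies on anti-human Fc biosensors at 25° C. Assay buffer held 10 mM Tris pH 7.6, 150 mM NaCl, 1 mM CaCl₂, 0.1% Triton X-100 and 1 mg/mL BSA.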
# [4] = target: T2, recombinant soluble human TREM2 protein …; test: Octet BLI binning; competitor: load Ab 24G6
# Summary of the method: as §3
# [5] = target: T2, recombinant soluble human TREM2 protein …; test: Octet BLI binning; competitor: load Ab 32E3
# Summary of the method: as §3
# [6] = target: T2, recombinant soluble human TREM2 protein …; test: Octet BLI binning; competitor: load Ab 24A10
# Description: as §1, §2
# [7] = target: T2, recombinant soluble human TREM2 protein …; test: Octet BLI binning; competitor: load Ab 25F12
# Summary of the method: as §3
# [8] = target: T2, recombinant soluble human TREM2 protein …; test: Octet BLI binning; competitor: load Ab 26A10
# Description: as §1, §2
# [9] = target: T2, recombinant soluble human TREM2 protein …; test: Octet BLI binning; competitor: load Ab 26C10
# Description: as §1, §2
# [10] = target: T2, recombinant soluble human TREM2 protein …; test: Octet BLI, antibody on anti-human Fc sensor, 25 C
# Description: (§4) To quantitate the binding affinity of agonist antibodies for human TREM2, association and dissociation rate constants as well as the equilibrium dissociation constant were determined using anti-human Fc (Kinetic) sensors on an Octet® HTX instrument (Pall ForteBio). Agonist anti-TREM2 antibodies were made up in DMEM null media, 250 μL at 10 μg/mL. The, 250 uL of assay buffer (10 mM Tris (pH 7.6), 0.1% Triton X-100, 150 mM NaCl, 1mM CaCl₂, and 1 mg/mL BSA) was added to the antibody solutions to a final volume of 500 μL and final antibody concentration of 5 μg/mL. The anti-human Fc sensor was pre-incubated in 200 μL of the assay buffer for a minimum of 10 minutes. The sensor was then regenerated for 5 seconds in 10 mM glycine pH 1.5. Test agonist anti-TREM2 antibodies were loaded onto the sensor for 2 minutes, and baseline measurements were taken for 2 minutes. […] The recombinant TREM2 proteins were allowed to associate with the antibody-loaded sensor for 10 minutes, and then dissociation was measured for 10 minutes. The assay was conducted at 25° C. Experimental kinetic results were globally fit to a 1:1 binding model in order to determine the association and dissociation rate constants as well as the equilibrium dissociation constant.
# [11] = target: T3, recombinant soluble cynomolgus TREM2 …; test: Octet BLI, antibody on anti-human Fc sensor, 25 C
# Description: as §4
Binder,pSyk EC50 (human TREM2 on cells) [nM],sandwich binding signal [1],sandwich binding signal [2],sandwich binding signal [3],sandwich binding signal [4],sandwich binding signal [5],sandwich binding signal [6],sandwich binding signal [7],sandwich binding signal [8],sandwich binding signal [9],Kd [10] [nM],Kd [11] [nM]
B1,0.24,-0.165,0.514,0.222,0.328,0.338,0.441,0.38,-0.052,-0.073,2.1,1.6
B2,0.29,0.565,0.009,0.051,0.412,0.079,0.499,0.371,0.475,0.472,2.6,2.5
B3,0.4,0.415,-0.012,-0.024,0.317,0.007,0.38,0.273,0.367,0.348,10.3,11.3
B4,0.4,0.428,-0.01,-0.019,0.338,0.01,0.383,0.278,0.371,0.369,11,8.71
